{"source": "IntAct's records for PubMed 10601328", "parents": {"B1": {"name": "Receptor-type tyrosine-protein phosphatase R (Homo sapiens), Q15256 (parent)", "chain": "MRRAVCFPALCLLLNLHAAGCFSGNNDHFLAINQKKSGKPVFIYKHSQDIEKSLDIAPQKIYRHSYHSSSEAQVSKRHQIVNSAFPRPAYDPSLNLLAMDGQDLEVENLPIPAANVIVVTLQMDVNKLNITLLRIFRQGVAAALGLLPQQVHINRLIGKKNSIELFVSPINRKTGISDALPSEEVLRSLNINVLHQSLSQFGITEVSPEKNVLQGQHEADKIWSKEGFYAVVIFLSIFVIIVTCLMILYRLKERFQLSLRQDKEKNQEIHLSPITLQPALSEAKTVHSMVQPEQAPKVLNVVVDPQGRGAPEIKATTATSVCPSPFKMKPIGLQERRGSNVSLTLDMSSLGNIEPFVSIPTPREKVAMEYLQSASRILTRSQLRDVVASSHLLQSEFMEIPMNFVDPKEIDIPRHGTKNRYKTILPNPLSRVCLRPKNVTDSLSTYINANYIRGYSGKEKAFIATQGPMINTVDDFWQMVWQEDSPVIVMITKLKEKNEKCVLYWPEKRGIYGKVEVLVISVNECDNYTIRNLVLKQGSHTQHVKHYWYTSWPDHKTPDSAQPLLQLMLDVEEDRLASQGRGPVVVHCSAGIGRTGCFIATSIGCQQLKEEGVVDALSIVCQLRMDRGGMVQTSEQYEFVHHALCLYESRLSAETVQ"}}}
{"variants_of": "B1", "conditions": "with mk14_human MAPK14, Q16539"}
{"variant": "S339E", "effect of a mutation on the interaction": "disrupting interaction"}
